This is an account of results in US20240043537A1 (MacroGenics, published 2024).

The target in assay [1] is T1, soluble human CD3 (human, UniProt P07766 23-126). In words: SPR (BIAcore), diabody over immobilized soluble human CD3, 1:1 fit. The protocol:
(§1) The ability of the CD123-binding diabodies: CD123-WT, CD123-M1, CD123-M2 and CD123-M18 to bind to human CD3 and CD123 was also evaluated using BIAcore®. […] Table 14 presents the calculated kₐ, kd and KD from these studies.
Background: Surface plasmon resonance follows binding to a sensor surface in real time, without labels.

Another assay has as its target cyno CD3 (cynomolgus, UniProt Q95LI5 22-117). Put plainly: SPR (BIAcore), diabody 6.25-400 nM over immobilized cyno CD3, 1:1 Langmuir fit. The protocol:
(§2) In additional studies the ability of CD123-binding diabodies: CD123-WT, CD123-M13, CD123-M17 and CD123-M19 to bind to human CD3 and cynomolgus CD3 was also evaluated using BIAcore®. […] Table 15B presents the calculated kₐ, kd and KD.

In assay [2] the target is T2, soluble human CD123, His-tagged (human, UniProt P26951 19-305).
T2 construct: Captured on an anti-PentaHis surface; also called soluble CD123; not shown: His tag
T2 sequence (looked up): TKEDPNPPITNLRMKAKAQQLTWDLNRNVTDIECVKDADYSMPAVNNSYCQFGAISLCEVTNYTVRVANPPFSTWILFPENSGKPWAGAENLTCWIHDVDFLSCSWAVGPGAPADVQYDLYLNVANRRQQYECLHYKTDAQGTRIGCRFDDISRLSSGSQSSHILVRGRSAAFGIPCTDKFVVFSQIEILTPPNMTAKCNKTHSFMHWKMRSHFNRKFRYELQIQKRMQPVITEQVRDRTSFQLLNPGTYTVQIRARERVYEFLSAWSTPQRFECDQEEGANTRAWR
In words: SPR (BIAcore), diabody over His-tagged CD123 captured on anti-PentaHis, 1:1 fit. As for the experimental part:
as §1

The target of assay [3] is T1, soluble human CD3. In words: SPR (BIAcore), diabody 6.25-400 nM over immobilized human CD3, 1:1 Langmuir fit. The protocol: as §2
A further assay concerns the target T3, CD8 on CD8+ T-cells (UniProt P01732 22-235; P10966 22-210).
T3 construct: whole, on cells; also called CD8 expressing CD8+ T-cells
Put plainly: flow cytometry on CD8+ T-cells, MFI (geo mean) against concentration (nM); CD123-WT is the diabody comparator without a CD8-Binding Domain. On the technique in general: Flow cytometry measures light scatter and fluorescence of single cells or particles in a stream.

Another assay concerns the target T4, CD123 on MOLM-13 cells (UniProt P26951 19-378, limits assumed).
T4 construct: whole, on cells; also called CD123-expressing MOLM-13 cells
In words: Flow cytometry on MOLM-13 cells; detection with biotinylated anti-E/K-coil antibody and streptavidin-PE. As for the experimental part: FIG. 9A-9B show the ability of DART-B-type diabodies to bind to Disease Antigens. […] Binding was detected using biotinylated antibody specific for the diabodies' E/K coils and streptavidin-phycoerythrin (PE).
The ability of such diabodies to bind to their respective Disease Antigen (i.e., CD123 or 5T4) on the surface of MOLM-13 leukemia (CD123) or A-498 kidney carcinoma (5T4) target cancer cells was assessed using FACS. Briefly, cells were incubated with the diabody molecules (in FACS buffer containing 10% human AB serum) in microtiter plates. The cells were washed and incubated with biotin-conjugated mouse anti-EK-coil antibody that recognizes the E-coil/K-coil (EK) Heterodimer-Promoting Domain of the diabodies mixed with streptavidin-phycoerythrin.

T1 sequence (P07766 23-126): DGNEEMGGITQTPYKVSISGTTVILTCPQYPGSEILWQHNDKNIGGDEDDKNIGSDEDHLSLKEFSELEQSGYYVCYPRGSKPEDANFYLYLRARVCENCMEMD
cyno CD3, sequence (Q95LI5 22-117): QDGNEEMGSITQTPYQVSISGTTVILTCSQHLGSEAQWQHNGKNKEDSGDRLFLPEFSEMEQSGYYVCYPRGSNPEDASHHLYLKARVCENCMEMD
T3 sequence (P01732 22-235, chain 1 of 2): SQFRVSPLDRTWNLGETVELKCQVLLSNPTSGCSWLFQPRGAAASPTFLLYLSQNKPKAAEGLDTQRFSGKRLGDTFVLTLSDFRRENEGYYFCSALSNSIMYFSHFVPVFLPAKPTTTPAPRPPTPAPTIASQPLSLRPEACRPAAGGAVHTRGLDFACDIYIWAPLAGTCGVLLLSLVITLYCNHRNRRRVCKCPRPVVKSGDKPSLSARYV
T3 sequence (P10966 22-210, chain 2 of 2): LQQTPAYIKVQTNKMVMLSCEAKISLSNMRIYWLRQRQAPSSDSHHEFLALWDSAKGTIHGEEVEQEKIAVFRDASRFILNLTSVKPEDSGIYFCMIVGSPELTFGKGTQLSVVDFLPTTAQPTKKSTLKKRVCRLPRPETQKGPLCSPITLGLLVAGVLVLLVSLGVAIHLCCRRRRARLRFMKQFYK

B1: CD123-WT (bispecific antibody)
chain 1: DFVMTQSPDSLAVSLGERVTMSCKSSQSLLNSGNQKNYLTWYQQKPGQPPKLLIYWASTRESGVPDRFSGSGSGTDFTLTISSLQAEDVAVYYCQNDYSYPYTFGQGTKLEIKGGGSGGGGEVQLVESGGGLVQPGGSLRLSCAASGFTFSTYAMNWVRQAPGKGLEWVGRIRSKYNNYATYYADSVKDRFTISRDDSKNSLYLQMNSLKTEDTAVYYCVRHGNFGNSYVSWFAYWGQGTLVTVSSGGCGGGEVAALEKEVAALEKEVAALEKEVAALEKGGGDKTHTCPPCPAPEAAGGPSVFLFPPKPKDTLMISRTPEVTCVVVDVSHEDPEVKFNWYVDGVEVHNAKTKPREEQYNSTYRVVSVLTVLHQDWLNGKEYKCKVSNKALPAPIEKTISKAKGQPREPQVYTLPPSREEMTKNQVSLWCLVKGFYPSDIAVEWESNGQPENNYKTTPPVLDSDGSFFLYSKLTVDKSRWQQGNVFSCSVMHEALHNHYTQKSLSLSPGK
chain 2: QAVVTQEPSLTVSPGGTVTLTCRSSTGAVTTSNYANWVQQKPGQAPRGLIGGTNKRAPWTPARFSGSLLGGKAALTITGAQAEDEADYYCALWYSNLWVFGGGTKLTVLGGGGSGGGGEVQLVQSGAELKKPGASVKVSCKASGYTFTDYYMKWVRQAPGQGLEWIGDIIPSNGATFYNQKFKGRVTITVDKSTSTAYMELSSLRSEDTAVYYCARSHLLRASWFAYWGQGTLVTVSSGGCGGGKVAALKEKVAALKEKVAALKEKVAALKE
chain 3: not shown
notes: Three-chain diabody with Fc; also called CD123 x CD3 mAb 1 DART-B-type diabody
One may read the Kd as the constant that tells how readily two partners part at equilibrium. A high value points to lower affinity. In the case of B1, the Kd with soluble human CD3 [1] was determined as 67 nM; in the assay with cyno CD3, 39 nM; in assay [2], 2 nM; with soluble human CD3 [3], 52 nM. The binding result with CD8 on CD8+ T-cells was “no binding (tested: 100 nM)”.

B2: CD123-M19 (bispecific antibody)
chain 1: DFVMTQSPDSLAVSLGERVTMSCKSSQSLLNSGNQKNYLTWYQQKPGQPPKLLIYWASTRESGVPDRFSGSGSGTDFTLTISSLQAEDVAVYYCQNDYSYPYTFGQGTKLEIKGGGSGGGGEVQLVESGGGLVQPGGSLRLSCAASGFTFSTYAMNWVRQAPGKGLEWVGRIRSKYNNYATYYADSVKDRFTISRDDSKNSLYLQMNSLKTEDTAVYYCVRHKNIGNSYVSWFAYWGQGTLVTVSSGGCGGGEVAALEKEVAALEKEVAALEKEVAALEKGGGDKTHTCPPCPAPEAAGGPSVFLFPPKPKDTLMISRTPEVTCVVVDVSHEDPEVKFNWYVDGVEVHNAKTKPREEQYNSTYRVVSVLTVLHQDWLNGKEYKCKVSNKALPAPIEKTISKAKGQPREPQVYTLPPSREEMTKNQVSLWCLVKGFYPSDIAVEWESNGQPENNYKTTPPVLDSDGSFFLYSKLTVDKSRWQQGNVFSCSVMHEALHNHYTQKSLSLSPGK
chain 2: QAVVTQEPSLTVSPGGTVTLTCRSSTGAVTTSNYANWVQQKPGQAPRGLIGGTNKRAPWTPARFSGSLLGGKAALTITGAQAEDEADYYCALWYSNLWVFGGGTKLTVLGGGGSGGGGEVQLVQSGAELKKPGASVKVSCKASGYTFTDYYMKWVRQAPGQGLEWIGDIIPSNGATFYNQKFKGRVTITVDKSTSTAYMELSSLRSEDTAVYYCARSHLLRASWFAYWGQGTLVTVSSGGCGGGKVAALKEKVAALKEKVAALKEKVAALKE
chain 3: not shown
notes: Three-chain diabody with Fc; also called CD123 x CD3 mAb 1 M19 DART-B-type diabody
Regarding B2, the Kd turned out to be 227 nM with cyno CD3 and 218 nM with soluble human CD3 [3].

B3: CD123-M1 (bispecific antibody)
chain 1: DFVMTQSPDSLAVSLGERVTMSCKSSQSLLNSGNQKNYLTWYQQKPGQPPKLLIYWASTRESGVPDRFSGSGSGTDFTLTISSLQAEDVAVYYCQNDYSYPYTFGQGTKLEIKGGGSGGGGEVQLVESGGGLVQPGGSLRLSCAASGFTFSTYAMNWVRQAPGKGLEWVGRIRSKYNNYATYYADSVKDRFTISRDDSKNSLYLQMNSLKTEDTAVYYCVRHGNFGNSYVTWFAYWGQGTLVTVSSGGCGGGEVAALEKEVAALEKEVAALEKEVAALEKGGGDKTHTCPPCPAPEAAGGPSVFLFPPKPKDTLMISRTPEVTCVVVDVSHEDPEVKFNWYVDGVEVHNAKTKPREEQYNSTYRVVSVLTVLHQDWLNGKEYKCKVSNKALPAPIEKTISKAKGQPREPQVYTLPPSREEMTKNQVSLWCLVKGFYPSDIAVEWESNGQPENNYKTTPPVLDSDGSFFLYSKLTVDKSRWQQGNVFSCSVMHEALHNHYTQKSLSLSPGK
chain 2: QAVVTQEPSLTVSPGGTVTLTCRSSTGAVTTSNYANWVQQKPGQAPRGLIGGTNKRAPWTPARFSGSLLGGKAALTITGAQAEDEADYYCALWYSNLWVFGGGTKLTVLGGGGSGGGGEVQLVQSGAELKKPGASVKVSCKASGYTFTDYYMKWVRQAPGQGLEWIGDIIPSNGATFYNQKFKGRVTITVDKSTSTAYMELSSLRSEDTAVYYCARSHLLRASWFAYWGQGTLVTVSSGGCGGGKVAALKEKVAALKEKVAALKEKVAALKE
chain 3: not shown
notes: Three-chain diabody with Fc; also called CD123 x CD3 mAb 1 M1 DART-B-type diabody
In general, EC50 (read off the curve) refers to the concentration at which the effect is half-maximal. High values mean weaker potency, low ones greater potency. For B3, the Kd with soluble human CD3 [1] turned out to be 842 nM; in assay [2], 1.2 nM. In addition, the “EC50 (read off the curve)” value with CD123 on MOLM-13 cells is about 2 nM.
